T1: Human Topoisomerase I (Homo sapiens, UniProt P11387)
T1 construct: purchased Topogen
T1 sequence (P11387 1-765): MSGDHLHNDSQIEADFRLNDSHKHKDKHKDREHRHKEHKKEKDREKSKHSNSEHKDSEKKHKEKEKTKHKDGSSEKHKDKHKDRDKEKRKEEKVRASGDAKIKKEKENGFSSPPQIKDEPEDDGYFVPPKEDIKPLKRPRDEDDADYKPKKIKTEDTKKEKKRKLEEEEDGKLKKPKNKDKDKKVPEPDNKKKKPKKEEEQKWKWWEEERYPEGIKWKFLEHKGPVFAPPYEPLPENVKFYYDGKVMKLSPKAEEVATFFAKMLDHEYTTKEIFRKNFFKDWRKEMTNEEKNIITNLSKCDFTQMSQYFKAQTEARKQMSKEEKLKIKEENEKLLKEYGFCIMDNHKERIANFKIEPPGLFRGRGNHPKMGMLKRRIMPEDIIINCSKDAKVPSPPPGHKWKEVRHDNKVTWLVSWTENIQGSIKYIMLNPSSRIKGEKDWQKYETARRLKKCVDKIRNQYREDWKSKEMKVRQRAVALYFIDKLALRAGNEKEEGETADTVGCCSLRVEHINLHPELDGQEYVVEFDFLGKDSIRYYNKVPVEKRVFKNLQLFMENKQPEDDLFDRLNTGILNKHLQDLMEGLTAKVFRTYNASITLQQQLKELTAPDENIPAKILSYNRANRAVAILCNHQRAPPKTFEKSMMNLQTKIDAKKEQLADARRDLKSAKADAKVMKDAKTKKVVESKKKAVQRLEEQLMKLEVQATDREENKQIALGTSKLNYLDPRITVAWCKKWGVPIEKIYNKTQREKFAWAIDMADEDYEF

B1: E1: rabbit derived anti-cNHL VL sdAb clone, SEQ. ID. 4 (antibody, listed as Oryctolagus cuniculus, V domains shown)
VL: ELVMTQTPSPVSAAVGGTVTIACQSSQSVYSGTLLSWYQQKPGQSPKLLIHEASTLASGVPSRFKGSGSGTQFTLTISDLECADAATYYCLGGFDDDADNAFGGGTELEIL
B2: E2: rabbit derived anti-cNHL VL sdAb clone, SEQ. ID. 5 (antibody, listed as Oryctolagus cuniculus, V domains shown)
VL: ELDLTQTPPSLSASVGGTVTINCQASESISNYLAWYQQKPGQPPKLLIYGASNLESGVPSRFRGSGSGTEFTLTISDMKAEDAATFYCQSGYYTAGDLTFGAGTNVEIK
B3: C8: rabbit derived anti-cNHL VL sdAb clone, SEQ. ID. 2 (antibody, listed as Oryctolagus cuniculus, V domains shown)
VL: ELVMTQTPSSVSAAVGGTVTINCRASEDIESYLAWYQQKPGQPPKRLIYGASNLASGVSSRFKGSGSGTDFTLTISDLECADAATYYCQCIVGGSTYGNVFGGGTELEIL
B4: B12: rabbit derived anti-cNHL VL sdAb clone, SEQ. ID. 6 (antibody, listed as Oryctolagus cuniculus, V domains shown)
VL: ELVLTQTPASVEAAVGGTVTIKCQASQSIGSYLAWYQQKPGQPPKLLIYGASTLASGVPSRFSGSRSDTQFSLTISDLECADAATYYCQGYYYSDSSSYVNTFGGGTEVVVK
B5: A12: rabbit derived anti-cNHL VL sdAb clone, SEQ. ID. 1 (antibody, listed as Oryctolagus cuniculus, V domains shown)
VL: ELVMTQTPSSVSAAVGGTATIDCQSTKSVYNNNALSWYQQKPGQPPKLLIYRASTLTSGVPSRFSGSGSGTQFTLTINDVQCDDAATYYCQGGISGSSDAPFGGGTEVVVK
B6: RG23: rabbit derived BBB targeting VL sdAb clone, SEQ. ID 44 to 48 series; ^99mTc(CO)3-labelled in Table 1 (antibody, listed as Oryctolagus cuniculus, V domains shown)
VL: ELVMTQTPASVSEPVGGTVTIKCQASQSIGNALAWYQQKPGQPPKLLIYGASNLESGVPSRFKGSGSGTEFTLTISDLECADAATYYCQSYYYSSSSSYGSYAFGGGTEVVVK
modifications: 99mTc(CO)3 label
B7: RG3: rabbit derived BBB targeting VL sdAb clone, SEQ. ID 44; ^99mTc(CO)3-labelled in Table 1 (antibody, listed as Oryctolagus cuniculus, V domains shown)
VL: ELVMTQTPSPVSAAMGGTVSISCQSSKSVANNNELSWYQQKPGQPPKLLIYEASKLASGVPSRFKGSGSGTQFTLTISDVQCDDAATYYCLGDYYSSSDNAFGGGTEVVVK
modifications: 99mTc(CO)3 radiolabel
B8: RG22: rabbit derived BBB targeting VL sdAb clone, SEQ. ID 44 to 48 series; ^99mTc(CO)3-labelled in Table 1 (antibody, listed as Oryctolagus cuniculus, V domains shown)
VL: ELVLTQTPASVEAAVGGTVTINCQASQSVYNNKNLAWYQQKPGQPPKLLIYRASTLASGVPSRFSGSGSGTQFTLTISGAQCDDAATYYCQGEFSCSSGDCIAFGGGTEVVVK
modifications: 99mTc(CO)3 label

The test system of one data set is CLBL-1 cell extracts. Nature of the data set: ELISA screening of anti-cNHL VL sdAb clones. Type of data set: binding, canine. The conditions noted are these: clone supernatants, CLBL-1 extracts. The procedure:
After the phage display selection, in order to express and select the best anti-cNHL VL sdAbs, phagemid DNA derived from the in vivo output selection was cloned into a PT7-PL vector and transformed into an E. coli strain BL21. Then, individual clones were auto induced, and the supernatant tested in ELISA assays against CLBL-1 and Jurkat cell extracts. To select the best lead candidates, three parameters were evaluated: binding against cNHL, expression yields, and unspecific binding. […] After selection, to characterize the selected clones, the 43 best lead candidates were analysed by sanger sequencing (FIG. 6B). To get further insights of the enriched sequences during the in vivo phage display selection, we performed next generation sequencing (NGS) of the biopanning repertoires. NGS allows massive sequence analysis of the panning population, enabling a genomic assessment of the library diversity and frequency of each clone. Two samples were sequenced: biopanning from the CLBL-1 tumour models and initial immune VL sdAb cNHL library (FIG. 7). Upon bioinformatic analysis of the NGS data, we were able to determine the diversity of each sample and identify the most represented clones. A total of 34880 sequences were obtained for the biopanning from the CLBL-1 tumours. The NHL library obtained a total of 48864 sequences. The number of singletons, consisting of the sequences with a single occurrence, varied between samples, ranging from 76.8% in the library, and 33.3% in the in vivo biopanning from the CLBL-1. Through the comparison of the sequence prevalence between the biopannings and the library, we were able to verify that the number of occurrences in each sequence was higher in the biopanning clones. […] By comparing ELISA data, sanger sequencing and NGS analysis, the six best clones (A12, C8, C5, E1, E2, and B12) were produced and purified. Due to its binding characteristics and production properties, C5 sdAb clone was chosen to be thoroughly characterized and used in the development of the proposed ADC.
To express and select anti-NHL-sdAbs, phagemid DNA encoding selected anti-cNHL sdAbs was cloned into PT7-PL (PT7-peptide leader) vector and transformed into E. coli strain BL21. Individual colonies were inoculated in 100 μl of Super Broth (SB) medium containing Overnight Express™ Autoinduction System (Novagen®) and 100 μg/ml of ampicillin and incubated overnight at 30° C. Next day, 40 μl of BugBuster (Roche) containing anti-protease cocktail-EDTA free inhibitors (Roche) were added and incubated for 30 min at 4° C. Then, plates were centrifuged at 1200 rpm and the supernatant was tested in ELISA assays. Three different conditions were assessed: binding to the sdAbs to the antigen, expression level and unspecific binding. After coating the wells with CLBL-1 cell extracts or Raji cell extracts for 1 h at 37° C., wells were blocked with 3% BSA in PBS. Then, wells were washed with PBS and clones were added and incubated for 1 h, at 37° C. Next, plates were washed and incubated with anti-HA HRP antibody (Roche). Finally, after 1 h incubation, plates were washed and ABTS (Roche) was added and optical density at 405 nm was measured at different time points. To evaluate the expression level, the same protocol was applied, excluding antigen coating.
For unspecific binding, antigen was replaced by 3% BSA. Rabbit sera and anti-CD20 antibody were used as positive controls. BL21 cell extracts were used as negative controls. In the end, the ten best individual clones were sequenced at Eurofins company. Sequence analysis was performed using the Vector Nti software (Invitrogen). The antibody frameworks, CDRs and the amino acid numbering and sequences followed the rules described by Kabat et al. (1991) Sequences of proteins of immunological interest. Bethesda, MD, U.S. Dept. of Health and Human Services, Public Health Service, National Institutes of Health. […]
With B1, the “ELISA signal against NHL cells” value was “best results”.

On to B2, for which the “ELISA signal against NHL cells” value is reported as “best results”.

For the molecule B3, the “ELISA signal against NHL cells” value is recorded as “best results”.

Turning to B4, the “ELISA signal against NHL cells” value was “best results”.

Consider B5, for which the “ELISA signal against NHL cells” value is reported as “best results”.

Another data set has as its target T1, Human Topoisomerase I. Nature of the data set: DNA Topo I activity assay (Human Topoisomerase I Assay Kit). Type of data set: biochemical. As to conditions: 10 U Topo I, supercoiled DNA, agarose gel. The procedure:
FIG. 11—Cytotoxic effects of C5-DAB-SN-38. To determine the effect of C5-DAB-SN-38 on CLBL-1 and Jurkat cells, a cell viability assay was performed using the WST-1 reagent. 6×10^4 cells were seeded and treated with increasing amounts of compound. After 48 h treatment, cell viability was assessed. […] B) On the other hand, ADC had no effect on Jurkat cells, proving the specificity of the ADC. C5 was used as control. Best-fit EC50 values of each formulation were calculated using GraphPad Prism software (version 9.2.0, San Diego, CA, USA) using the log (inhibitor) vs response (variable slope) function. D) Effects of C5-DAB-SN-38 on DNA TopoI activity. To evaluate the effects of C5-DAB-SN-38 on DNA Topo I, we evaluated its activity using the Human Topoisomerase I Assay Kit. After incubation of C5-DAB-SN-38 with 1× reaction buffer and 10 U of Topo I for 1 h at 37° C., the supercoiled DNA was added. To stop the reaction, stop loading buffer was added. DNA TopoI activity was visualized by 1% agarose gel electrophoresis […] with ethidium bromide. Relaxed DNA indicated TopoI activity while supercoiled DNA indicated an inhibition. […] Relaxed DNA and supercoiled DNA were used as positive/negative controls. C5 and SN-38 were also used as controls.
Topo I activity on VL-DAB-SN38 was determined using the Human Topoisomerase I Assay Kit (Topogen, CO, USA) according to the manufacturer's instructions. […]
Take `CCc1c2c(nc3ccc(O)cc13)-c1cc3c(c(=O)n1C2)COC(=O)[C@]3(O)CC` [SN-38, reference compound]: the “effect on DNA Topo I activity” value was “inhibited”.

A further data set concerns bEnd.3 cell monolayer. Nature of the data set: In vitro BEB model translocation of sdAbs (western blot). In kind it is in vitro ADME, mouse. As to conditions: 15 μg sdAb at apex, 90 min, WB. The procedure: FIG. 16A 15 μg of each purified sdAb was added to the apex of the transwell and incubated for 90 min.
FIG. 16B Following incubation period, all volumes were collected from the apex and the base and analysed by WB with anti-HA antibody.
To determine the in vitro BEB translocation efficiency of the selected VL sdAb, 15 μg of each purified antibody was added to the apex of the transwell and incubated for 15 and 90 min. The incubation time and sdAb concentration were selected based on previous optimization assays (data not shown). Following incubation, the cells were washed once with PBS and three times with TB. Evaluation of the translocation efficiency of each VL sdAb was assessed by running […] of the recovered volume from the apex and the base on a 15% SDS-PAGE acrylamide gel followed by WB analysis with HRP-conjugated […] antibody at 1:3000 (Roche). As a positive control, 100 ng of each purified VL sdAb was used. The FC5 VHH was used as a positive control. The same procedure was performed to evaluate the BEB crossing properties of each purified rabbit serum, but the incubation was performed for 15 and 60 min and the detection was performed with goat-α anti-rabbit IgG-Fc specific HRP at 1:10,000. Chemiluminescence was detected using the Chemidoc XRS+System (Bio-rad).
(In general: Immunoblotting shows a protein as a band on a membrane.)
For B6, the “in vitro BEB translocation” value is “increased in vitro BEB-crossing efficiency”.

Turning to B7, the “in vitro BEB translocation” value is “increased in vitro BEB-crossing efficiency”.

On to B8, for which the “in vitro BEB translocation” value was “increased in vitro BEB-crossing efficiency”.

The values above are taken from patent publication US20240245800A1, “HIGHLY SPECIFIC RABBIT SINGLE -DOMAIN ANTIBODIES FOR DRUG DELIVERY IN IMMUNOTHERAPY APPLICATIONS” (TECHNOPHAGE, INVESTIGAÇÃO E DESENVOLVIMENTO EM …, priority 2021, published 2024).
